Molecular target: T1, human PSGL-1 (human, UniProt Q14242 42-412)
T1 sequence: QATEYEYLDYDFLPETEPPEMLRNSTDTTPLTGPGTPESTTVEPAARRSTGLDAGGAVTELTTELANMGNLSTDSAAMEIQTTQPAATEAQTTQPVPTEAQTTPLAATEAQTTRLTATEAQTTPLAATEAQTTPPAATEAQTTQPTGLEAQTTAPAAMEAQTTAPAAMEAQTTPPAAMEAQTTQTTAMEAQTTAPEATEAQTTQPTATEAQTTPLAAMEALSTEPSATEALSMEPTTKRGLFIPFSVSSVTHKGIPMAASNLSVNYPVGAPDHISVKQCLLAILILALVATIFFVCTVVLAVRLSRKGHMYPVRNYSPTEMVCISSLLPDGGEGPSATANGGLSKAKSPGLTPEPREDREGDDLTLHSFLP
Assay: cell-based or functional assay

B1: anti-PSGL-1 antibody 15A7H (antibody, human IgG4 S228P, kappa, V domains shown)
VH: EVQLVESGGGLVQPGGSLRLSCAASGFTFSSFGMHWVRQAPGKGLEWVAYINGGSSTIFYANAVKGRFTISRDNAKNTLYLQMNSLRAEDTAVYYCARYASYGGGAMDYWGQGTLVTVSS
VL: DIQMTQSPSSLSASVGDRVTITCRSSQSIVHNDGNTYFEWYQQKPGKAPKLLIYKVSNRFSGVPSRFSGSGSGTHFTLTISSLQPEDFATYYCFQGSYVPLTFGQGTKVEIKR
In the case of B1, the “EC50 15A7H, single treatment; apoptosis of activated T cells (Annexin V/PI, 48 h, with cross-linker), donor N084, ratio block 1.1:1” value is reported as 0.328 µg/mL, the “EC50 15A7H, single treatment; apoptosis of activated T cells (Annexin V/PI, 48 h, with cross-linker), donor N084, ratio block 3.3:1” value is reported as 0.328 µg/mL and the “EC50 15A7H, single treatment; apoptosis of activated T cells (Annexin V/PI, 48 h, with cross-linker), donor N089, ratio block 1.1:1” value is reported as 0.816 µg/mL. The “EC50 15A7H, single treatment; apoptosis of activated T cells (Annexin V/PI, 48 h, with cross-linker), donor N089, ratio block 3.3:1” value was 0.865 µg/mL, the “EC50 15A7H, single treatment; apoptosis of activated T cells (Annexin V/PI, 48 h, with cross-linker), donor N102, ratio block 0.37:1” value was 0.959 µg/mL and the “EC50 15A7H, single treatment; apoptosis of activated T cells (Annexin V/PI, 48 h, with cross-linker), donor N102, ratio block 1.1:1” value was 0.959 µg/mL. For the same binder, the “EC50 15A7H, single treatment; apoptosis of activated T cells (Annexin V/PI, 48 h, with cross-linker), donor N102, ratio block 3.3:1” value was 0.959 µg/mL, the “EC50 15A7H, single treatment; apoptosis of activated T cells (Annexin V/PI, 48 h, with cross-linker), donor N103, ratio block 0.37:1” value was 1.4 µg/mL and the “EC50 15A7H, single treatment; apoptosis of activated T cells (Annexin V/PI, 48 h, with cross-linker), donor N103, ratio block 1.1:1” value was 1.4 µg/mL. The “EC50 15A7H, single treatment; apoptosis of activated T cells (Annexin V/PI, 48 h, with cross-linker), donor N103, ratio block 3.3:1” value was 1.4 µg/mL.
